Assay results published in US20130209454A1.
Read-outs that look alike come from different tables or passages of the source.

Assays:
Assay in all cases: cell-based or functional assay
[1] = target: Env of HIV-1 strain BJOX009000.02.4 (HIV-1)
[2] = target: Env of HIV-1 strain CAP210.2.00.E8 (HIV-1)
[3] = target: Env of HIV-1 strain 1054_07_TC4_1499 (HIV-1)
[4] = target: Env of HIV-1 strain CNE5 (HIV-1)
[5] = target: Env of HIV-1 strain Q259.d2.17 (HIV-1)
[6] = target: Env of HIV-1 strain ZM109F.PB4 (HIV-1)
[7] = target: Env of HIV-1 strain T255-34 (HIV-1)
[8] = target: Env of HIV-1 strain 89-F1_2_25 (HIV-1)
[9] = target: Env of HIV-1 strain 235-47 (HIV-1)
[10] = target: Env of HIV-1 strain 3365.v2.c2 (HIV-1)
[11] = target: Env of HIV-1 strain X1193_c1 (HIV-1)
[12] = target: Env of HIV-1 strain Q461.e2 (HIV-1)
[13] = target: Env of HIV-1 strain Ce0393_C3 (HIV-1)
[14] = target: Env of HIV-1 strain T250-4 (HIV-1)
[15] = target: Env of HIV-1 strain Q769.d22 (HIV-1)
[16] = target: Env of HIV-1 strain Ce703010054_2A2 (HIV-1)
[17] = target: Env of HIV-1 strain SC05_8C11_2344 (HIV-1)
[18] = target: Env of HIV-1 strain 6240_08_TA5_4622 (HIV-1)
[19] = target: Env of HIV-1 strain Ce2060_G9 (HIV-1)
[20] = target: Env of HIV-1 strain Ce704809221_1B3 (HIV-1)
[21] = target: Env of HIV-1 strain P1981_C5_3 (HIV-1)
[22] = target: Env of HIV-1 strain P0402_c2_11 (HIV-1)
[23] = target: Env of HIV-1 strain 6535.3 (HIV-1)
[24] = target: HIV-1 Env of strain SC422661.8 (HIV-1)
[25] = target: HIV-1 Env of strain AC10.0.29 (HIV-1)
[26] = target: HIV-1 Env of strain CAP45.2.00.G3 (HIV-1)
[27] = target: HIV-1 Env of strain CAP210.2.00.E8 (HIV-1)
[28] = target: HIV-1 Env of strain TRO.11 (HIV-1)
[29] = target: HIV-1 strain SC422661.8 envelope (gp120) (HIV-1)
[30] = target: HIV-1 strain 0815.v3.c3 envelope (gp120) (HIV-1)
[31] = target: HIV-1 Env of strain R1166.c01 (HIV-1)
[32] = target: HIV-1 Env of strain Q461.e2 (HIV-1)
[33] = target: HIV-1 Env of strain CAP210.2.00.E8 (HIV-1); remark: listed apart in the source
[34] = target: HIV-1 Env of strain T251-18 (HIV-1)
[35] = target: HIV-1 strain Ce2010_F5 envelope (gp120) (HIV-1)
[36] = target: HIV-1 Env of strain HIV-16845-2.22 (HIV-1)
[37] = target: HIV-1 Env of strain 3016.v5.c45 (HIV-1)
[38] = target: HIV-1 Env of strain 89-F1_2_25 (HIV-1)
[39] = target: HIV-1 strain 231965.c01 envelope (gp120) (HIV-1)
[40] = target: HIV-1 Env of strain X2131_C1_B5 (HIV-1)
[41] = target: HIV-1 strain X1254_c3 envelope (gp120) (HIV-1)
[42] = target: HIV-1 strain 1056_10_TA11_1826 envelope (gp120) (HIV-1)
[43] = target: HIV-1 Env of strain Ce704809221_1B3 (HIV-1)
[44] = target: HIV-1 Env of strain BJOX025000.01.1 (HIV-1)
[45] = target: HIV-1 Env of strain C4118.c09 (HIV-1)
[46] = target: HIV-1 Env of strain 191821_E6_1 (HIV-1)
[47] = target: HIV-1 Env of strain A07412M1.vrc12 (HIV-1)
[48] = target: HIV-1 Env of strain CNE5 (HIV-1)
[49] = target: HIV-1 Env of strain 6041.v3.c23 (HIV-1)
[50] = target: HIV-1 Env of strain 246F C1G (HIV-1)

B1: NIH45-46^G54W(HC) S28Y(LC) (antibody, V domains shown)
VH: QVRLSQSGGQMKKPGESMRLSCRASGYEFLNCPINWIRLAPGRRPEWMGWLKPRWGAVNYARKFQGRVTMTRDVYSDTAFLELRSLTSDDTAVYFCTRGKYCTARDYYNWDFEHWGRGAPVTVSS
VL: EIVLTQSPATLSLSPGETAIISCRTSQYGSLAWYQQRPGQAPRLVIYSGSTRAAGIPDRFSGSRWGADYNLSISNLESGDFGVYYCQQYEFFGQGTKVQVDI
- IC80 [1]: 0.621 µg/mL
- IC80 [2]: 9.05 µg/mL
- IC80 [3]: 0.515 µg/mL
- IC80 [4]: 0.137 µg/mL
- IC80 [5]: 0.011 µg/mL
- IC80 [6]: 0.086 µg/mL
- IC80 [7]: 0.105 µg/mL
- IC80 [8]: > 50 µg/mL
- IC80 [9]: 0.019 µg/mL
- IC80 [10]: 0.049 µg/mL
- IC80 [11]: 0.054 µg/mL
- IC80 [12]: 0.134 µg/mL
- IC80 [13]: 0.151 µg/mL
- IC80 [14]: 38.9 µg/mL
- IC80 [15]: 0.017 µg/mL
- IC80 [16]: 0.051 µg/mL
- IC80 [17]: 0.219 µg/mL
- IC80 [18]: 0.623 µg/mL
- IC80 [19]: 0.062 µg/mL
- IC80 [20]: 0.484 µg/mL
- IC80 [21]: 0.045 µg/mL
- IC80 [22]: 0.042 µg/mL
- IC80 [23]: 0.059 µg/mL

B2: NIH45-46^G54W IgG (antibody, name in Kabat numbering, V domains shown)
VH: QVRLSQSGGQMKKPGESMRLSCRASGYEFLNCPINWIRLAPGRRPEWMGWLKPRWGAVNYARKFQGRVTMTRDVYSDTAFLELRSLTSDDTAVYFCTRGKYCTARDYYNWDFEHWGRGAPVTVSS
VL: EIVLTQSPATLSLSPGETAIISCRTSQSGSLAWYQQRPGQAPRLVIYSGSTRAAGIPDRFSGSRWGADYNLSISNLESGDFGVYYCQQYEFFGQGTKVQVDI
- neutralization IC50 [24]: 0.03 µg/mL
- neutralization IC50 [25]: 0.2 µg/mL
- neutralization IC50 [26]: 6.6 µg/mL
- neutralization IC50 [27]: 41 µg/mL
- neutralization IC50 [28]: 0.09 µg/mL
- neutralization IC80 [29]: 0.07 µg/mL
- neutralization IC80 [30]: 0.003 µg/mL
- neutralization IC50 [31]: 0.13 µg/mL
- neutralization IC50 [32]: 0.009 µg/mL
- neutralization IC50 [33]: > 50 µg/mL
- neutralization IC50 [34]: 0.26 µg/mL
- neutralization IC80 [35]: 0.187 µg/mL
- neutralization IC50 [36]: 0.45 µg/mL
- neutralization IC50 [37]: 1.47 µg/mL
- neutralization IC50 [38]: > 50 µg/mL
- neutralization IC80 [39]: 0.035 µg/mL
- neutralization IC50 [40]: 0.05 µg/mL
- neutralization IC80 [41]: 0.018 µg/mL
- neutralization IC80 [42]: 0.16 µg/mL

B3: NIH45-46^G54W (antibody, V domains shown)
VH: QVRLSQSGGQMKKPGESMRLSCRASGYEFLNCPINWIRLAPGRRPEWMGWLKPRWGAVNYARKFQGRVTMTRDVYSDTAFLELRSLTSDDTAVYFCTRGKYCTARDYYNWDFEHWGRGAPVTVSS
VL: EIVLTQSPATLSLSPGETAIISCRTSQSGSLAWYQQRPGQAPRLVIYSGSTRAAGIPDRFSGSRWGADYNLSISNLESGDFGVYYCQQYEFFGQGTKVQVDI
- IC50, pseudovirus neutralization [43]: 0.007 µg/mL
- IC80 [1]: 0.564 µg/mL
- IC50, pseudovirus neutralization [31]: 0.13 µg/mL
- IC80 [2]: > 50 µg/mL
- IC50, pseudovirus neutralization [44]: 0.014 µg/mL
- IC80 [3]: 0.165 µg/mL
- IC80 [4]: 0.116 µg/mL
- IC80 [5]: 0.014 µg/mL
- IC50, pseudovirus neutralization [32]: 0.009 µg/mL
- IC80 [6]: 0.07 µg/mL
- IC80 [7]: 0.099 µg/mL
- IC50, pseudovirus neutralization [45]: 0.01 µg/mL
- IC50, pseudovirus neutralization [33]: > 50 µg/mL
- IC50, pseudovirus neutralization [34]: 0.26 µg/mL
- IC80 [8]: > 50 µg/mL
- IC80 [9]: 0.017 µg/mL
- IC80 [10]: 0.056 µg/mL
- IC80 [11]: 0.009 µg/mL
- IC80 [12]: 0.091 µg/mL
- IC50, pseudovirus neutralization [36]: 0.45 µg/mL
- IC50, pseudovirus neutralization [37]: 1.47 µg/mL
- IC50, pseudovirus neutralization [46]: 0.013 µg/mL
- IC50, pseudovirus neutralization [47]: 0.001 µg/mL
- IC80 [13]: 0.089 µg/mL
- IC80 [14]: 44.9 µg/mL
- IC80 [15]: 0.009 µg/mL
- IC80 [16]: 0.077 µg/mL
- IC80 [17]: 0.2 µg/mL
- IC80 [18]: 0.603 µg/mL
- IC50, pseudovirus neutralization [38]: > 50 µg/mL
- IC80 [19]: 0.042 µg/mL
- IC50, pseudovirus neutralization [48]: 0.009 µg/mL
- IC50, pseudovirus neutralization [49]: 0.001 µg/mL
- IC50, pseudovirus neutralization [40]: 0.05 µg/mL
- IC80 [20]: 0.21 µg/mL
- IC80 [21]: 0.07 µg/mL
- IC80 [22]: 0.023 µg/mL
- IC50, pseudovirus neutralization [50]: 0.315 µg/mL
- IC80 [23]: 0.13 µg/mL
